Laboratory results published in the supplement of paper PMC6757056.
± gives the standard deviation of the averaged measurements.

B1: library; a variant is named by its letters at N, in order (parent)
chain: GCUGUCACCGAGAAACUGUGAAGUAUAUCUUAAACCUGGGCACUUAAAAGAUAUAUGGAGUUAGUAGUGCAACCUGCUCGGUCUGAUGAGUCCNNNNNNGGACGAAACAGC

What was measured:
cyclic di-GMP [1] = variants of: B1; experiment: normalized RNA/DNA level without ligand (relative to sTRSVctl = 100) (log10 (% of sTRSVctl)); HEK293T; ligand: cyclic di-GMP (c-di-GMP-II aptamer); higher = less ribozyme self-cleavage, higher mRNA level; conditions: reporter: mCherry (pCS4076), ligand present: no
Method in brief: (§1)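 Only sequences with at least 100 DNA reads were analyzed, from HEK293T cells transfected with 4 µg per 6-well well of ribozyme switch library plasmids 72 h before RNA extraction with EDTA. Any ligand was added 1 h before transfection. RNA level was defined as RNA over DNA reads, normalized to a spiked-in non-cleaving sequence or to the top sequences, then scaled and log-transformed. The top set was 25 sequences, and the scaling was ×100 followed by log10.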

cyclic di-GMP [2] = variants of: B1; experiment: normalized RNA/DNA level with ligand (relative to sTRSVctl = 100) (log10 (% of sTRSVctl)); HEK293T; ligand: cyclic di-GMP (c-di-GMP-II aptamer); ligand concentration (+) RNA-Seq: 1 mM; higher = less ribozyme self-cleavage, higher mRNA level; conditions: reporter: mCherry (pCS4076), ligand present: yes
Method in brief: as §1

Variant | normalized RNA/DNA level without ligand (log10) (cyclic di-GMP [1]) | normalized RNA/DNA level with ligand (log10) (cyclic di-GMP [2])
CUACCC | 1.76 ± 0.046 | 1.88 ± 0.1
AUAAGC | 1.6 ± 0.022 | 1.77 ± 0.082
AUAAGA | 1.4 ± 0.11 | 1.62 ± 0.12
AUAAGU | 1.55 ± 0.033 | 1.73 ± 0.12
AUAAGG | 1.54 ± 0.057 | 1.71 ± 0.12
GUAAGC | 1.58 ± 0.028 | 1.76 ± 0.16
GUAAGU | 1.65 ± 0.033 | 1.77 ± 0.061
GGUUUU | 1.7 ± 0.015 | 1.84 ± 0.077
GGUUUA | 1.582 ± 0.0053 | 1.79 ± 0.099
GGUUUC | 1.8 ± 0.12 | 1.86 ± 0.12
CUAAGC | 1.75 ± 0.039 | 1.87 ± 0.077
CUAAGG | 1.748 ± 0.0049 | 1.8 ± 0.064
CUAAGU | 1.75 ± 0.063 | 1.84 ± 0.099
CUAAGA | 1.53 ± 0.068 | 1.72 ± 0.079
CUAAUC | 1.712 ± 0.014 | 1.81 ± 0.087
AUAUUC | 1.707 ± 0.0056 | 1.84 ± 0.12
AUAUUA | 1.56 ± 0.05 | 1.76 ± 0.057
AUAUUU | 1.67 ± 0.018 | 1.84 ± 0.11
AUAUUG | 1.6 ± 0.052 | 1.78 ± 0.15
CUAUAC | 1.696 ± 0.016 | 1.83 ± 0.1
CUAUAG | 1.679 ± 0.012 | 1.84 ± 0.15
CUAUAU | 1.64 ± 0.035 | 1.77 ± 0.13
GUACAU | 1.61 ± 0.075 | 1.79 ± 0.074
GUACAC | 1.67 ± 0.03 | 1.79 ± 0.1

Variant | normalized RNA/DNA level without ligand (log10) (cyclic di-GMP [1]) | normalized RNA/DNA level with ligand (log10) (cyclic di-GMP [2])
GUACAG | 1.65 ± 0.067 | 1.78 ± 0.12
UGUUUG | 1.77 ± 0.014 | 1.91 ± 0.12
UGUUUA | 1.744 ± 0.0073 | 1.89 ± 0.072
UGUUUU | 1.71 ± 0.032 | 1.86 ± 0.11
UGUUUC | 1.812 ± 0.0031 | 1.92 ± 0.08
UUAACC | 1.78 ± 0.073 | 1.85 ± 0.14
UUAACU | 1.77 ± 0.02 | 1.87 ± 0.071
UUAACA | 1.7 ± 0.019 | 1.8 ± 0.091
UUAACG | 1.81 ± 0.054 | 1.88 ± 0.11
UGUUCA | 1.71 ± 0.066 | 1.81 ± 0.12
UGUUCC | 1.84 ± 0.052 | 1.94 ± 0.14
UGUUCU | 1.75 ± 0.051 | 1.88 ± 0.13
UGUUCG | 1.8 ± 0.023 | 1.89 ± 0.12
AUAUAC | 1.68 ± 0.019 | 1.82 ± 0.12
AUAUAA | 1.5 ± 0.042 | 1.67 ± 0.13
AUAUAU | 1.678 ± 0.0055 | 1.83 ± 0.11
GGUUGC | 1.7 ± 0.018 | 1.87 ± 0.021
GGUUGA | 1.57 ± 0.15 | 1.74 ± 0.035
GGUUGU | 1.7 ± 0.061 | 1.86 ± 0.16
CUAGAU | 1.65 ± 0.017 | 1.79 ± 0.069
CUAGAG | 1.589 ± 0.011 | 1.74 ± 0.08
UUAUUU | 1.75 ± 0.06 | 1.86 ± 0.17
UUAUUA | 1.68 ± 0.069 | 1.8 ± 0.13
UUAUUC | 1.76 ± 0.073 | 1.88 ± 0.14

Variant | normalized RNA/DNA level without ligand (log10) (cyclic di-GMP [1]) | normalized RNA/DNA level with ligand (log10) (cyclic di-GMP [2])
UUAUUG | 1.7 ± 0.026 | 1.83 ± 0.16
GUAUCU | 1.68 ± 0.038 | 1.82 ± 0.084
GUAUCC | 1.73 ± 0.028 | 1.86 ± 0.13
GUAUCG | 1.63 ± 0.043 | 1.81 ± 0.098
CUAGGU | 1.7 ± 0.026 | 1.85 ± 0.14
CUAGGG | 1.62 ± 0.022 | 1.78 ± 0.12
CUAGGC | 1.74 ± 0.03 | 1.89 ± 0.11
CUAGGA | 1.54 ± 0.055 | 1.72 ± 0.099
CUACUU | 1.56 ± 0.067 | 1.73 ± 0.059
CUACUA | 1.47 ± 0.14 | 1.64 ± 0.072
CUACUC | 1.7 ± 0.034 | 1.83 ± 0.069
CUACUG | 1.64 ± 0.025 | 1.83 ± 0.078
AUAGCG | 1.73 ± 0.02 | 1.85 ± 0.15
AUAGCC | 1.76 ± 0.022 | 1.87 ± 0.095
AUAGCA | 1.71 ± 0.043 | 1.81 ± 0.15
AUAGCU | 1.68 ± 0.024 | 1.78 ± 0.069
AUAGGA | 1.35 ± 0.13 | 1.55 ± 0.15
AUAGGC | 1.55 ± 0.023 | 1.76 ± 0.18
UUAGAC | 1.702 ± 0.0078 | 1.83 ± 0.1
UUAGAG | 1.63 ± 0.0024 | 1.76 ± 0.047
UUAGAU | 1.7 ± 0.031 | 1.83 ± 0.082
UUAGAA | 1.56 ± 0.043 | 1.73 ± 0.088
AGUUUU | 1.79 ± 0.033 | 1.89 ± 0.13
AGUUUC | 1.75 ± 0.025 | 1.85 ± 0.13

Variant | normalized RNA/DNA level without ligand (log10) (cyclic di-GMP [1]) | normalized RNA/DNA level with ligand (log10) (cyclic di-GMP [2])
AGUUUG | 1.65 ± 0.088 | 1.77 ± 0.096
GUACUC | 1.54 ± 0.099 | 1.75 ± 0.041
GUACUA | 1.61 ± 0.036 | 1.8 ± 0.065
GUACUU | 1.7 ± 0.036 | 1.81 ± 0.15
GUACUG | 1.58 ± 0.033 | 1.78 ± 0.081
AGUUGC | 1.67 ± 0.029 | 1.82 ± 0.12
AGUUGU | 1.66 ± 0.048 | 1.85 ± 0.11
AGUUGG | 1.63 ± 0.043 | 1.8 ± 0.11
AGUUGA | 1.57 ± 0.04 | 1.75 ± 0.1
CUACAU | 1.57 ± 0.047 | 1.72 ± 0.13
CUACAG | 1.73 ± 0.023 | 1.87 ± 0.035
CUAACA | 1.662 ± 0.0013 | 1.78 ± 0.09
CUAACG | 1.77 ± 0.031 | 1.85 ± 0.15
CUAACC | 1.8 ± 0.038 | 1.84 ± 0.12
UUAAAA | 1.645 ± 0.0029 | 1.8 ± 0.066
UUAAAC | 1.7 ± 0.057 | 1.8 ± 0.097
UUAAAG | 1.65 ± 0.023 | 1.81 ± 0.11
CUAUCA | 1.538 ± 0.014 | 1.74 ± 0.038
CUAUCG | 1.79 ± 0.047 | 1.88 ± 0.12
AGUUCC | 1.8 ± 0.043 | 1.9 ± 0.084
AGUUCA | 1.62 ± 0.051 | 1.8 ± 0.061
AGUUCG | 1.69 ± 0.021 | 1.79 ± 0.11
AGUUCU | 1.69 ± 0.027 | 1.87 ± 0.056
UUACUU | 1.68 ± 0.022 | 1.83 ± 0.11

Variant | normalized RNA/DNA level without ligand (log10) (cyclic di-GMP [1]) | normalized RNA/DNA level with ligand (log10) (cyclic di-GMP [2])
UUACUC | 1.747 ± 0.0026 | 1.84 ± 0.093
UUACUG | 1.67 ± 0.016 | 1.84 ± 0.096
AUAUCG | 1.56 ± 0.022 | 1.75 ± 0.068
AUAUCA | 1.63 ± 0.032 | 1.79 ± 0.12
AUAUCU | 1.73 ± 0.062 | 1.86 ± 0.13
UUAGCG | 1.79 ± 0.032 | 1.86 ± 0.11
UUAGCA | 1.72 ± 0.052 | 1.83 ± 0.12
UUAGCU | 1.775 ± 0.0051 | 1.89 ± 0.062
UUAGCC | 1.76 ± 0.082 | 1.83 ± 0.13
UUACGC | 1.739 ± 0.011 | 1.86 ± 0.1
UUACGA | 1.77 ± 0.046 | 1.87 ± 0.11
UUACGG | 1.82 ± 0.058 | 1.9 ± 0.094
UUACGU | 1.66 ± 0.03 | 1.8 ± 0.079
AUAAAA | 1.53 ± 0.056 | 1.67 ± 0.073
AUAAAU | 1.59 ± 0.005 | 1.8 ± 0.11
AUAAAC | 1.647 ± 0.0018 | 1.8 ± 0.13
GGUUCU | 1.66 ± 0.044 | 1.77 ± 0.083
GGUUCG | 1.7 ± 0.046 | 1.88 ± 0.075
GGUUCA | 1.6 ± 0.043 | 1.73 ± 0.12
GUAGAC | 1.595 ± 0.0029 | 1.79 ± 0.13
